Test results taken from PMC4092071.

Tests used:
Experiment in all cases: equilibrium inhibitor binding assay (free trypsin by residual activity on a fluorogenic substrate); BPTI variants (0-100 pM) and trypsin (50 pM) in solution, 15 h at 22°C, 0.1 M Tris-HCl (pH 8.0), 1 mM CaCl2, 0.05% Tween 20; free trypsin from cleavage of Z-Gly-Pro-Arg-AMC; free protease against total inhibitor fitted with a quadratic equation
[1] = target: sulfated human anionic trypsin (human) (UniProt P07478)
[2] = target: non-sulfated human cationic trypsin (human)
[3] = target: sulfated human cationic trypsin (human)
[4] = target: non-sulfated human anionic trypsin (human) (UniProt P07478)

Kd [1] [pM] | Kd [2] [pM] | Kd [3] [pM] | Kd [4] [pM] | Substance
2.2 | 0.7 | 7.9 | 0.3 | BPTI variant carrying Ala at P2′ (P1′ Ala, P3′ Asp, P4′ Ile, P19′ Val) (designed binder)
0.4 | 0.9 | 1 | 0.7 | BPTI variant carrying Arg at P2′ (P1′ Ala, P3′ Asp, P4′ Ile, P19′ Val) (designed binder)
1.3 | 0.5 | 3.2 | 0.3 | BPTI variant carrying Ile at P2′ (P1′ Ala, P3′ Asp, P4′ Ile, P19′ Val) (designed binder)
4 | 1.2 | 13.4 | 1.2 | BPTI variant carrying Leu at P2′ (P1′ Ala, P3′ Asp, P4′ Ile, P19′ Val) (designed binder)
1.3 | 3.9 | 3.3 | 1.6 | BPTI variant carrying Lys at P2′ (P1′ Ala, P3′ Asp, P4′ Ile, P19′ Val) (designed binder)
